We go through six molecules from patent US20100196385A1 (AstraZeneca / MedImmune, published 2010).

Broadly, the EC50 is the concentration giving half of the maximal effect. A higher EC50 goes with weaker potency. One may read the IC50 as the concentration that gives 50% inhibition. As usually defined, the % inhibition is the drop in the measured response relative to a control, in per cent.

For assay [1], the target named is T1, full length human DLL4 (human, UniProt Q9NR61 27-685).
T1 construct: whole, on cells; also called native DLL4 expressed in HEK293 cells
T1 sequence (Q9NR61 27-685): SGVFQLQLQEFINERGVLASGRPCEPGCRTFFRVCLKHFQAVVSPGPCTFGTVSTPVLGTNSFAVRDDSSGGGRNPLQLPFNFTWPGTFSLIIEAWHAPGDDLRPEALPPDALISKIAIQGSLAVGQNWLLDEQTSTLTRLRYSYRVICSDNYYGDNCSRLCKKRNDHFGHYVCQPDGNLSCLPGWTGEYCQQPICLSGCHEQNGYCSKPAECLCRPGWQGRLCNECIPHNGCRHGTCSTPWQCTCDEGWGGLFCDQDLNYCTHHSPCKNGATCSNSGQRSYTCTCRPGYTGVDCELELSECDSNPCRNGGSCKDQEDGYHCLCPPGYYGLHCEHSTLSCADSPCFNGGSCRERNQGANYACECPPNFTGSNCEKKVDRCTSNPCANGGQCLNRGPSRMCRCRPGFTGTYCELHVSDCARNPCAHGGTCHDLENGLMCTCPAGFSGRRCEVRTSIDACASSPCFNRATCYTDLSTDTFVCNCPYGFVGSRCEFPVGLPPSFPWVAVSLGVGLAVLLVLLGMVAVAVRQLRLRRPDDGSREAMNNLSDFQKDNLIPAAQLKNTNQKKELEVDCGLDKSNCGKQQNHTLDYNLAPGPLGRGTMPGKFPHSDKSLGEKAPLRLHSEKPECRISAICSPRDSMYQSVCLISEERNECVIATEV
Kind of assay: FACS binding, HEK293 cells with human DLL4. The method, then:
(§1) The activity of the mutated antibodies was assessed in two ways: firstly, the ability of the antibodies to block the binding of soluble Notch1/Fc to full length human DLL4 stably expressed in HEK293 cells as described in Example 3 was determined and, secondly, the binding of the antibodies to the same cell line used in the receptor-ligand competition studies was determined. For the binding studies, HEK293 cells stably overexpressing human DLL4 were resuspended in PBS containing 2% FCS at a concentration of 50,000 cells/well and incubated with titrations of antibody (final concentrations 0.01-10 μg/ml) for 1 h at 4° C. The cells were then washed and incubated with 0.31 μg/ml anti-human IgG-Fc-FITC (BD Pharmingen, cat#555786) for 30 minutes at 4° C. Bound […] was detected using FACS analysis. Results of these studies are summarized in Table 23, which show the effects of specific mutations to sequences of 9G8 and 2H10 on the ability of the antibodies to compete with Notch1 for binding to human DLL4 or to bind to human DLL4 relative to unmutated antibodies.

The target in assay [2] is T1, full length human DLL4. Kind of assay: FACS competition vs Notch1/Fc, HEK293 cells with human DLL4. The method, then: Further experiments were performed on selected antibodies using HEK293 cells that were stably transfected with either human, mouse or cynomolgus monkey DLL4 using retroviral constructs. In these experiments, anti-DLL4 antibodies (final concentration: 10-0.01 μg/ml) diluted in PBS containing 2% FCS were added to DLL4-expressing HEK 293 cells (50000 cells/well diluted in PBS containing 2% FCS) and incubated for 1 h at 4° C. Subsequently, Alexa-647 labeled human, rat or APC labeled mouse Notch1/Fc (e.g. R&D Systems, catalog #3647-TK-050, 1057-TK-050, 5267-TK-050, respectively) was added at a final concentration of 0.01-0.5 μg/ml and plates were incubated for a further 2 h at 4° C. prior to washing and reading on a FACSCalibur instrument.
as §1

For assay [3], the target named is DLL4 extracellular domain (R&D systems, catalog #1506-D4/CF) (UniProt Q9NR61 27-529, limits assumed). Kind of assay: cell-based or functional assay.
Sequence of DLL4 extracellular domain (R&D systems, catalog #1506-D4/CF) (Q9NR61 27-529 limits assumed): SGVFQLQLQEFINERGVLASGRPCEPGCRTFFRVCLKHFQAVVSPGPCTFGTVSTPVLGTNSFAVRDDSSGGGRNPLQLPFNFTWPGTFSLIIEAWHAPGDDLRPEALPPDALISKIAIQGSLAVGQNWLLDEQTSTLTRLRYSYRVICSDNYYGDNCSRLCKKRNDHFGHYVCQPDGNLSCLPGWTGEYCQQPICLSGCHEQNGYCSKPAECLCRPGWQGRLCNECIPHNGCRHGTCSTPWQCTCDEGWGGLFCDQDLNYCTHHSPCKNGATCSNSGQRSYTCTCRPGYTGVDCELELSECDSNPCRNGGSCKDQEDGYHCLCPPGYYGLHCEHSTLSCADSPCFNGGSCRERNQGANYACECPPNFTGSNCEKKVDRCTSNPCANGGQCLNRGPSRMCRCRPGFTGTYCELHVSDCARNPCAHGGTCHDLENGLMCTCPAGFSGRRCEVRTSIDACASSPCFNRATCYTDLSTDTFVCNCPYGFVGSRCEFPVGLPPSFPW
Assay [4] has as its target T2, human Dll1 (human, UniProt O00548 18-723).
T2 construct: whole, on cells
T2 sequence (looked up): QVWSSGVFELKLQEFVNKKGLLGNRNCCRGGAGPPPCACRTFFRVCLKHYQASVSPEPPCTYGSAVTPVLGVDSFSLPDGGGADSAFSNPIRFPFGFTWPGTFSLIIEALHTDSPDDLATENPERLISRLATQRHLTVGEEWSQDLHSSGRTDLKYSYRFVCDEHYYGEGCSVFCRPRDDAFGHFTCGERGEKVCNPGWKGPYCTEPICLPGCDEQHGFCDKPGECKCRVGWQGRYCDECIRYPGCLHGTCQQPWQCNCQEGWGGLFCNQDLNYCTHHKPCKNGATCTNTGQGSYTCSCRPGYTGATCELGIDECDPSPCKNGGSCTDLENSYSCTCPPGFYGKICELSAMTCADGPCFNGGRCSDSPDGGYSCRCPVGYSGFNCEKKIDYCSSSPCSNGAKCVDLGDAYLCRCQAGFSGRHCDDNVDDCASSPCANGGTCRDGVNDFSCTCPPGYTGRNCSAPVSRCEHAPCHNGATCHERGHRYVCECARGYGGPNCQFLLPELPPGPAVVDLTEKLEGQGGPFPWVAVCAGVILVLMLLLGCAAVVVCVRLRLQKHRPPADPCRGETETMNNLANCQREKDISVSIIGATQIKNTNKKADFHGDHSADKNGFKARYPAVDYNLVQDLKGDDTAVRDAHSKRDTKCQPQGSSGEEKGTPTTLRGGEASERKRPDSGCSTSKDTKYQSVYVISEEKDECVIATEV
Kind of assay: FACS, 15 µg/ml, 293T cells with human Dll1. The method, then:
(§2) The ability of the purified antibodies to bind to human Jagged1 and Dll1 was determined by FACS analysis. […] Cells were resuspended in PBS containing 2% FCS and seeded at 50000 cells/well into V-bottomed plates. Anti-DLL4 antibodies diluted in PBS containing 2% FCS were added at a final concentration of 5 or 15 μg/ml and plates were incubated for 1 h at 4° C. […] Data was analyzed by comparing the shift in geometric mean fluorescence in the mock-transfected cells to that observed in the Jagged1- or Dll1-transfected cells and is shown in Tables 16 and 17.

Assay [5] concerns the target T3, human Jagged1 (human, UniProt P78504 34-1218).
T3 construct: whole, on cells
The assay can be described thus: FACS, 5 µg/ml, 293T cells with human Jagged1. The method, then: as §2
A general note: A flow cytometer gives signals particle by particle.

The target of assay [6] is T2, human Dll1. Kind of assay: FACS, 15 µg/ml, 293T cells with human Dll1 vs mock. The protocol:
as §2

Assay [7] has as its target T3, human Jagged1. The assay can be described thus: FACS, 5 µg/ml, 293T cells with human Jagged1 vs mock. The protocol: as §2
The target in assay [8] is T1, full length human DLL4. Kind of assay: FMAT, hybridoma supernatant, 293T cells with human DLL4. The method, then:
(§3) Cells diluted in PBS containing 2% FBS were seeded at a density of 3000 expressing and 15000 mock transfected cells per well in 384 well plates (Corning Costar, catalog #3712). Immediately after plating, 15 or 20 μl/well of hybridoma supernatants and 10 μl/well of secondary antibody (Goat anti-human IgG Fc Cy5, final concentration 750 ng/ml) were added and plates incubated for 3 h at room temperature prior to reading the fluorescence on the FMAT 8200 instrument (Applied Biosystems). The binding of human Notch1/Fc chimera (R&D systems, catalog #3647-TK), diluted 1:2 from 2.86 μg/ml was used as a positive control for DLL4 and human Notch3/Fc chimera diluted from 10 μg/ml was used a positive control for binding to Jagged1. Results for 12 hybridoma supernatants showing binding of hybridoma supernatants to human/cynomolgus monkey DLL4 and human Jagged are shown in Table 3.

Assay [9] has as its target T3, human Jagged1. The assay can be described thus: FMAT, hybridoma supernatant, 293T cells with human Jagged1. The method, then: as §3
Assay [10] has as its target T1, full length human DLL4. The assay can be described thus: FMAT competition, supernatant vs Alexa-647 human Notch1/Fc, 293T cells with human DLL4. The protocol: Transfected and untransfected 239T cells were reconstituted in PBS containing 2% FCS and 5000 transfected and 17500 non-transfected cells were plated in 20 μl into wells of a 384-well tissue culture plate (Corning Costar, catalog #3712). Subsequently, 20 μl of hybridoma supernatant was added and plates were incubated at 4° C. for 1 h, at which time 20 μl of Alexa-647 labeled human Notch1/Fc was added at a final concentration of 6.7 ng/ml. After a further 3 h incubation at 4° C., the amount of bound Notch1/Fc was determined by reading the fluorescence in each well using an FMAT 8200 instrument (Applied Biosystems). Results are expressed as % inhibitions with the minimum inhibition in the assay being determined by the effects of non-DLL4 binding supernatants prepared in a similar way as described in example 2, and the maximum inhibition being defined as the signal obtained in the presence of a saturating concentration of unlabeled Notch1/Fc. N.T.=not tested

Assay [11] deals with T1, full length human DLL4. The assay can be described thus: FMAT competition, purified antibody vs Alexa-647 human Notch1/Fc, 293T cells with human DLL4. The method, then: To discriminate between the purified antibodies based upon their ability to prevent the interaction between full-length recombinant DLL4 and soluble Notch1/Fc, the following assays were performed. Transfected and untransfected 239T cells were reconstituted in PBS containing 2% FCS and 5000 transfected and 17500 non-transfected cells were plated in 30 μl into wells of a 384-well tissue culture plate (Corning Costar, catalog #3712). Subsequently, 30 μl of purified antibodies, serial diluted from 5 μg/ml hybridoma supernatant was added and plates were incubated at 4° C. for 1 h, at which time 20 μl of 100 ng/ml Alexa-647 labeled human Notch1/Fc was added. After a further 3 h incubation at 4° C., the amount of bound Notch1/Fc was determined by reading the fluorescence in each well using an FMAT 8200 instrument (Applied Biosystems).

T3 sequence (P78504 34-1218): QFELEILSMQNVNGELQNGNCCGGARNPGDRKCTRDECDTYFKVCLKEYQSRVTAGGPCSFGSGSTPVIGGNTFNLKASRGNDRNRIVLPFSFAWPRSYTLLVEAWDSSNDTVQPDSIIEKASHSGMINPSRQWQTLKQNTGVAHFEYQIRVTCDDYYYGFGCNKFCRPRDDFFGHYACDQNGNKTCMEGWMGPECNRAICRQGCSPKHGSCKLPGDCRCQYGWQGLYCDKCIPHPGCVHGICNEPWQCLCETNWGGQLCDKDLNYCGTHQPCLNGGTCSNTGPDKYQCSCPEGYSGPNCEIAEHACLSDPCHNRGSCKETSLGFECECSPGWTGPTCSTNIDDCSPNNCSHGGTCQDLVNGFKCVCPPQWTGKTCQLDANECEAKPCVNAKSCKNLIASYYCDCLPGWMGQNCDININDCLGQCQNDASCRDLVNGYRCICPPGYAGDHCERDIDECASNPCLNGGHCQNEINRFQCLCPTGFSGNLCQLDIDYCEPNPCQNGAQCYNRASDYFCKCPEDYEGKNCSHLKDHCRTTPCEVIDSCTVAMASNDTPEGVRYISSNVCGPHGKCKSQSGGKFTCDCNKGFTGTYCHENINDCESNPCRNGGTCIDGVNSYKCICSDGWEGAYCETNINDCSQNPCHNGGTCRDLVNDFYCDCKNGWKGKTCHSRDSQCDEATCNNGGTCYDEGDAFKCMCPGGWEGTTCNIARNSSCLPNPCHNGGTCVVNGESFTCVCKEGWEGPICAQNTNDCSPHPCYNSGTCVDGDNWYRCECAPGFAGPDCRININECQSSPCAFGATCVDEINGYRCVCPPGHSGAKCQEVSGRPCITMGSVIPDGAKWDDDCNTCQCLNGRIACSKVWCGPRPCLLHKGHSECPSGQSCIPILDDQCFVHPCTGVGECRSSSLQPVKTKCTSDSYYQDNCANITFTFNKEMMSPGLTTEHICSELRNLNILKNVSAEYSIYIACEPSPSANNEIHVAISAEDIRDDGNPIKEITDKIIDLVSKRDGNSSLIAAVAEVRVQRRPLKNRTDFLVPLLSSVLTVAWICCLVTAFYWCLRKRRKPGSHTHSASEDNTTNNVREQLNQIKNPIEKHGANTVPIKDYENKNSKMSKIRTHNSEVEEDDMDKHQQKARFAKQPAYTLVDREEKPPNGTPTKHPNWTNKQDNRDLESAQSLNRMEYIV

B1: 9G8 IgG2 VH wt/VL wt (antibody, V domains shown)
VH: QLQLQESGPGLVKPSETLSLSCTVSGGSISSSSSYWGLIRQPPGKGLEWIGSIYYSGSTYYSPSLKSRVSISVDTSKNQFSLKLSSVTAADTAVYFCARQGYGGHPDVFDIWGQGTMVTVSS
VL: SSELTQSPSVSVSPGQTARITCSGDKLGDVYVCWYQQKTGQSPVLVIYEDTKRPSGIPERFSGSNSGNTATLTISGTQVMDEADYYCQAWDSTTAVIFGGGTKLTVL
notes: IgG2, transiently expressed
Consider B1, for which the concentration giving a half-maximal response (EC50) with full length human DLL4 [1] is 0.071 µg/mL. Besides, the half-maximal inhibitory concentration (IC50) with full length human DLL4 [2] was 0.17 µg/mL.

B2: 9G8 IgG2 VH L38W/VL S7P (antibody, V domains shown)
VH: QLQLQESGPGLVKPSETLSLSCTVSGGSISSSSSYWGWIRQPPGKGLEWIGSIYYSGSTYYSPSLKSRVSISVDTSKNQFSLKLSSVTAADTAVYFCARQGYGGHPDVFDIWGQGTMVTVSS
VL: SSELTQPPSVSVSPGQTARITCSGDKLGDVYVCWYQQKTGQSPVLVIYEDTKRPSGIPERFSGSNSGNTATLTISGTQVMDEADYYCQAWDSTTAVIFGGGTKLTVL
notes: IgG2
With B2, in the assay with full length human DLL4 [1], the 50% effective concentration (EC50) worked out at 0.074 µg/mL. This molecule also returned an IC50 with full length human DLL4 [2] of 0.155 µg/mL.

B3: 9G8 IgG2 VH L38W/VL C33S (antibody, V domains shown)
VH: QLQLQESGPGLVKPSETLSLSCTVSGGSISSSSSYWGWIRQPPGKGLEWIGSIYYSGSTYYSPSLKSRVSISVDTSKNQFSLKLSSVTAADTAVYFCARQGYGGHPDVFDIWGQGTMVTVSS
VL: SSELTQSPSVSVSPGQTARITCSGDKLGDVYVSWYQQKTGQSPVLVIYEDTKRPSGIPERFSGSNSGNTATLTISGTQVMDEADYYCQAWDSTTAVIFGGGTKLTVL
notes: IgG2
Molecule B3 returned an EC50 with full length human DLL4 [1] of 0.051 µg/mL. This molecule also gave an IC50 with full length human DLL4 [2] of 0.107 µg/mL.

B4: 9G8 IgG2 VH wt/VL C33S (antibody, V domains shown)
VH: QLQLQESGPGLVKPSETLSLSCTVSGGSISSSSSYWGLIRQPPGKGLEWIGSIYYSGSTYYSPSLKSRVSISVDTSKNQFSLKLSSVTAADTAVYFCARQGYGGHPDVFDIWGQGTMVTVSS
VL: SSELTQSPSVSVSPGQTARITCSGDKLGDVYVSWYQQKTGQSPVLVIYEDTKRPSGIPERFSGSNSGNTATLTISGTQVMDEADYYCQAWDSTTAVIFGGGTKLTVL
notes: IgG2
Regarding B4, the midpoint of the response with full length human DLL4 [1], the EC50, lay at 0.067 µg/mL. Moreover, the IC50 in the assay with full length human DLL4 [2] stood at 0.136 µg/mL.

B5: 9G8 IgG2 VH L38W/VL wt (antibody, V domains shown)
VH: QLQLQESGPGLVKPSETLSLSCTVSGGSISSSSSYWGWIRQPPGKGLEWIGSIYYSGSTYYSPSLKSRVSISVDTSKNQFSLKLSSVTAADTAVYFCARQGYGGHPDVFDIWGQGTMVTVSS
VL: SSELTQSPSVSVSPGQTARITCSGDKLGDVYVCWYQQKTGQSPVLVIYEDTKRPSGIPERFSGSNSGNTATLTISGTQVMDEADYYCQAWDSTTAVIFGGGTKLTVL
notes: IgG2
B5: the midpoint of the response with full length human DLL4 [1], the EC50, lay at 0.07 µg/mL. Further, the 50% inhibitory concentration (IC50) in the assay with full length human DLL4 [2] is 0.133 µg/mL.

B6: 21F7 (antibody, IgG2, V domains shown)
VH: QVQLVQSGAEVKKPGASVKVSCQASGYTFTNYGISWVRQAPGQGLEWMGWINAYNGNTNYAQNLQGRVTMTTDTSTNTAYMELRSLRSDDTAVYYCARVAAAAFFDYWDQGTLVTVSS
VL: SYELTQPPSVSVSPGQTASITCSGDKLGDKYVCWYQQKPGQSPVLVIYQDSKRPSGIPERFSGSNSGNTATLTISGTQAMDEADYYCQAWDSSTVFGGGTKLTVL
notes: Fully human; also used where no isotype is printed
For the molecule B6, in assay [3], the “% inhibition 1 µg/ml, N = 1 (HUVEC proliferation on coated DLL4)” value was 30% and the “% inhibition 10 µg/ml, N = 1 (HUVEC proliferation on coated DLL4)” value was found to be 48%. Moreover, in the assay with human Dll1 [4], the “Dll1/293T X Geo mean” value stood at 30.2. Further, the “Jagged1/293T X Geo mean” value with human Jagged1 [5] came to 13.8. For the same molecule, in the assay with human Dll1 [6], the Dll1/mock ratio is 1.13. Besides, the Jagged1/mock ratio with human Jagged1 [7] came out at 1.01. In the assay with full length human DLL4 [8], this molecule displayed a Count of 200, an FL1 of 10400 and an FL1 x count of 2.08e+06. In the assay with human Jagged1 [9], this molecule registered a Count of 1, an FL1 of 2070 and an FL1 x count of 2070. In the assay with full length human DLL4 [10], the “% inhibition n = 2” value is 93%, the “% inhibition n = 3” value was determined as 140% and the Mean % inhibition worked out at 117%. Besides, in the assay with full length human DLL4 [11], the “% inhibition at 0.020 nM” value was 11%, the “% inhibition at 0.070 nM” value was determined as 17%, the “% inhibition at 0.21 nM” value was 7% and the “% inhibition at 0.62 nM” value was -22%. Further, in the assay with full length human DLL4 [11], the “% inhibition at 1.9 nM” value worked out at 35%, the “% inhibition at 5.6 nM” value stood at 116%, the “% inhibition at 16.7 nM” value came to 104% and the half-maximal inhibitory concentration (IC50) was determined as 1.95 nM.
